From patent publication US20260374887 (published 2026)

Target: BAFF-R (human, UniProt Q96RJ3)
Assay: other, in vitro experiments

Sequence of BAFF-R (Q96RJ3 7-71): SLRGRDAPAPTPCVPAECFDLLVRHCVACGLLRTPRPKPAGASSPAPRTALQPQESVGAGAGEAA

B1: ianalumab (VAY736) (antibody, V domains shown)
VH: QVQLQQSGPGLVKPSQTLSLTCAISGDSVSSNSAAWGWIRQSPGRGLEWLGRIYYRSKWYNSYAVSVKSRITINPDTSKNQFSLQLNSVTPEDTAVYYCARYDWVPKIGVFDSWGQGTLVTVSS
VL: DIVLTQSPATLSLSPGERATLSCRASQFISSSYLSWYQQKPGQAPRLLIYGSSSRATGVPARFSGSGSGTDFTLTISSLEPEDFAVYYCQQLYSSPMTFGQGTKVEIKR
B1 gave a Kd of 0.046 nM.
